This note sets out measurements from the supplement of paper PMC10126150.

± gives the standard deviation of the averaged measurements.
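Further: ATP exposure 15 min at 22 °C before imaging.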

The test system of this data set is ATP. The experiment in a line: switch fluorescence ratio, 500 uM ATP over buffer (Cy3 cluster intensity, sum of 5 cycles each) (fold (ratio)); higher = stronger signal-on switching upon ATP binding; sequences stand for … in TCGTCGGCAGCGTCAGATGTGTATAAGAGACAGTTTTTTTTTTTTTTTTTTTTTTTTT…TC. The settings on record: aptamer strand: ATP DNA aptamer (quencher-CACCTGGGGGAGTATTGCGGAGGAAGG + anchor), 100 nM annealed; ATP concentration: 500 uM. Put shortly:
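Between each of five buffer/ATP cycles, the flow-cell was stripped with NaOH and re-annealed. Each cycle imaged Cy3-labelled switching-strand clusters, annealed to 100 nM quencher-labelled ATP aptamer on a modified Illumina MiSeq flow-cell, first in selection buffer and then after 15 min with 500 uM ATP at 22 °C. The fluorescence ratio is summed target-cycle over summed buffer-cycle Cy3 intensity per cluster, averaged per switch-domain sequence, with clusters outside 100-1000 RFU excluded.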
As for AGGGGGCGGG, the switch fluorescence ratio is 1.03 ± 0.035.
As for GGGATAAAGA, the figure is 1.001 ± 0.003.
As for GCATTGGCGG, the figure is 0.993 ± 0.044; as for AAGGGCGCCC, 1.14 ± 0.18; as for TTAGAGGAAC, 0.965 ± 0.028.
For CAAAAGGGGA the value was 0.984 ± 0.04; for ATGTAGTCTT, 1 ± 0.0038.
For GGGTGTGTTT, the switch fluorescence ratio was determined as 0.985 ± 0.018.
For GATAACATGT the value was 1.02 ± 0.029; for TTTTATCGGT, 0.979 ± 0.012; for GAGGTTTAGG, 0.986 ± 0.042.
As for ATCTGAATTG, the figure is 0.988 ± 0.013; as for TAGTTATCGT, 1.01 ± 0.027.
Regarding GCAGAGTCGT, the switch fluorescence ratio came to 0.999 ± 0.037.
As for GGCCAAGGTC, the figure is 1.004 ± 0.004; as for TTTACCGGCG, 1.02 ± 0.051.
Turning to TCTAATGGGT, the switch fluorescence ratio worked out at 0.982 ± 0.017.
As for AGTAGGGGGG, the figure is 0.988 ± 0.033.
For CGGGGCAAAT the value was 1.04 ± 0.028.
As for CATTCTAAAG, the figure is 1.02 ± 0.011.
As to GTTGTGTGTG, the switch fluorescence ratio turned out to be 0.974 ± 0.041.
As for TTGGTACTGC, the figure is 1.03 ± 0.027; as for CGAGGCCTGT, 1.02 ± 0.022.
With AGGCTTAGGG, the switch fluorescence ratio was found to be 1.03 ± 0.022.
As for AAGGTTAATA, the figure is 0.976 ± 0.08.
As for TCGTTGAGGG, the figure is 0.96 ± 0.036; as for TTATGGACTG, 1.01 ± 0.079.
CGTGGTTGCG: the switch fluorescence ratio was found to be 0.962 ± 0.055.
As for TTGATTCATA, the figure is 0.98126 ± 0.00011; as for GGGAAATTGT, 0.997 ± 0.017.
Turning to AATGGGGACA, the switch fluorescence ratio was determined as 0.995 ± 0.051.
For the sequence GTGGACAGGC, the switch fluorescence ratio turned out to be 1 ± 0.02.
For TTACTCGTCA the value was 0.989 ± 0.011; for TTGAGCTGTT, 0.981 ± 0.033; for TCGGGTTGTA, 1 ± 0.025.
For AGCCTGTATG the value was 0.9542 ± 0.0046.
As for TAGGTGCCTT, the figure is 1.006 ± 0.0053; as for CGAGCGTAGG, 1.01 ± 0.043.
TTATGAATAG: the switch fluorescence ratio was 0.99 ± 0.011.
For CGTGTTTGGG the value was 0.994 ± 0.022.
Take GGATAAGGCC: the switch fluorescence ratio came out at 1 ± 0.012.
As for AGCATGGCTT, the figure is 1.04 ± 0.054; as for ACCGCGTATG, 1.03 ± 0.038; as for TAGATAATGG, 1.02 ± 0.014.
For ATTTGTGGGG the value was 1.01 ± 0.065.
For TTGGGAGCGG the value was 0.9769 ± 0.0038; for TTAGGGTTTC, 0.978 ± 0.013.
In the case of GCCGGCGCAC, the switch fluorescence ratio was determined as 1.026 ± 0.0057.
As for GCGTATCGGA, the figure is 1.01 ± 0.043; as for CGGCAGGGTG, 1.05 ± 0.0092; as for GGTTAGATAG, 1.01 ± 0.035.
As for GGACTCCCGG, the figure is 0.99 ± 0.011; as for ACTATATTTT, 1.04 ± 0.0067; as for ACAATATGGG, 1.01 ± 0.079.
As for ATTCGGGTTT, the figure is 1.05 ± 0.066.
Take TTATGGTCTG: the switch fluorescence ratio stood at 0.984 ± 0.038.
For the sequence CCAGTGATGG, the switch fluorescence ratio turned out to be 1 ± 0.042.
As for AGAAAAGTGG, the figure is 0.985 ± 0.019; as for CCTAGTTGTG, 1.02 ± 0.016; as for TTAGGTAGCA, 1.007 ± 0.0024.
As for GGGGGAATCC, the figure is 1.06 ± 0.08; as for TTTTGTGAGG, 1.04 ± 0.044; as for ATTGGTGCGT, 1.0357 ± 0.0007.
For AAGCAGGGGG the value was 0.995 ± 0.018; for GGTGTTAAGA, 1.01 ± 0.0043.
As for TGAAAGGCTC, the switch fluorescence ratio is 1.1 ± 0.14.
For CACCGTTTTC the value was 1.1 ± 0.028; for TTTCGTCCAA, 1.04 ± 0.026.
For CCAATTGCGC the value was 1.03 ± 0.031; for TGTGATGGGC, 0.989 ± 0.026; for TTCTAGTCTA, 0.987 ± 0.01.
For AGGTTCGG the value was 0.9937 ± 0.0069; for TTTATGTTT, 0.984 ± 0.019; for GAACGGGTAC, 1.42 ± 0.17.
Regarding AGTGTACTAG, the switch fluorescence ratio was 1.045 ± 0.0022.
Consider AACCTCGTCT, for which the switch fluorescence ratio came out at 1.07 ± 0.039.
For TTTTCACTTT the value was 1.01 ± 0.046.
For TATCGGTTGT the value was 1.03 ± 0.015; for GGGGAAATCC, 1.02 ± 0.046; for CTGGGGGCCG, 0.979 ± 0.054.
As for TAGACCGGAG, the figure is 1.04 ± 0.014; as for TGGCAGTCGG, 0.978 ± 0.019.
For the sequence GCCTGATGCG, the switch fluorescence ratio is 0.997 ± 0.055.
As for TGATGGTGCC, the figure is 0.986 ± 0.014; as for TGGTGGGGCG, 1.11 ± 0.051.
As for GCATGAGGGT, the switch fluorescence ratio was 1.03 ± 0.072.
As for TCGGGTAAGC, the figure is 1.014 ± 0.0052; as for GCCATTAAGA, 1.01 ± 0.011.
As for AGGGGTGATA, the figure is 1.023 ± 0.0047; as for TACAGAGGG, 0.966 ± 0.06.
For TATGATTTGG the value was 0.976 ± 0.031; for GGGGCACTGT, 1.01 ± 0.013.
Take GAAGGGATTT: the switch fluorescence ratio was found to be 1.13 ± 0.11.
As for ACGCCGTATG, the figure is 1 ± 0.011; as for TAATTTATTT, 1.03 ± 0.029.
As for TTTGGGAATG, the figure is 1.06 ± 0.13; as for TTGGGGGCGA, 1.036 ± 0.0035; as for TTATAAAAAA, 1.07 ± 0.079.
For CTAGAAGCGG the value was 0.983 ± 0.013.
As to ACTTGCGCAG, the switch fluorescence ratio turned out to be 1.05 ± 0.043.
As for CGTGATATAG, the figure is 1.02 ± 0.026.
As for AGGGGTACGT, the figure is 0.982 ± 0.011; as for ACATATCTTT, 1.025 ± 0.0012; as for TCGGATGTCA, 0.965 ± 0.049.
As for TTCAGATGCG, the figure is 0.993 ± 0.041; as for CGGGTTTAAC, 0.998 ± 0.021; as for AAGCTTTCGG, 1.03 ± 0.016.
Take GATTTATTCG: the switch fluorescence ratio stood at 0.983 ± 0.014.
Consider TAGTAAGGGA, for which the switch fluorescence ratio was 1 ± 0.031.
In the case of TGATGTATCA, the switch fluorescence ratio is 1.01 ± 0.08.
As for GGGTTATGGA, the figure is 0.971 ± 0.021.
As for AATGTGGGCC, the figure is 1.024 ± 0.0013; as for AAGGATGTGG, 0.977 ± 0.021; as for CGAGTTGTTT, 1 ± 0.03.
As for CAGGTGTGGC, the switch fluorescence ratio came to 1.11 ± 0.013.
As for GCGAATTGGA, the figure is 1.028 ± 0.0019; as for ACAGCATGGA, 1.04 ± 0.048; as for GTTGTGATCT, 0.989 ± 0.015.
Regarding CATGAGGTCG, the switch fluorescence ratio was 0.989 ± 0.047.
For GCAGGGTAGC the value was 1.04 ± 0.012.
